In patent publication US20140315811A1, “OPHTHALMIC PREPARATIONS BASED ON PACAP (PITUITARY ADENYLATE CYCLASE ACTIVATING POLYPEPTIDE) WHICH RESTORE THE NORMAL VISUAL FUNCTION IN EARLY GLAUCOMA” (HMFRA HUNGARY LIMITED LIABILITY COMPANY, priority 2011, published 2014):

Assays:
[1] = tested on: cAMP levels in the retina; assay: Determination of cAMP levels in the retina after topical application of PACAP 38 (Cyclic AMP EIA kit, retinal homogenate); format: in vivo, mice (C57BL-6J); details: topical application into conjunctival sac, PACAP 50 μM (0.226 μg/μl) in saline (0.9% NaCl) and acetic acid (5%); 6 hours after application; Student's t-test p<0.05
Experimental: • The preparation Based on Saline Solution (0.9% NaCl) Containing PACAP 38 was Used
The test was conducted on mice (C57BL-6J, Harlan, Italy); PACAP 38 was applied topically, instilled into the conjunctival sac of one eye, while the other eye, used as control, was treated with the saline solution (“placebo”) only. • Determination of cAMP Levels in the Retina
The animals were sacrificed 6 hours after the topical application, when deep anaesthesia had been induced by an intraperitoneal urethane injection (20%). The eye was then removed, and the cAMP level measured in the retinal homogenate of the eye treated with PACAP and of the other eye treated with saline only (control eye). The measurements were performed by cyclic AMP assay using the Cyclic AMP EIA KIT ([…]). The results shown in the chart in FIG. 1 were obtained with a topical application of PACAP (50 μM; 0.226 μg/μl) in saline solution (0.9% NaCl) and acetic acid (5%), and are expressed as relative values (%) compared with the control eye.

[2] = tested on: DBA/2J mouse (retinal ganglion cells / inner nuclear layer response); assay: Pattern electroretinogram (P-ERG) after repeated topical application in murine spontaneous glaucoma model; format: in vivo
From the text: The PACAP receptor, called PAC1, is known to be expressed in the ganglion cells (Seki et al. 1997; 2000; D'Agata and Cavallaro 1998; Hannibal and Fahrenkrug 2004; Kubrusly et al. 2005). The activity of PACAP was verified in the most common experimental model of spontaneous glaucoma, a double mutant mouse called DBA/2J (John et al., 1998; Chang et al., 1999). The DBA/2J mouse presents homozygous mutations of two separate genes; the first is […] (Tyrpl−/−) coding for a melanosome protein, and the second is a membrane glycoprotein (Gpnmb−/−); pigment granules accumulate in the trabecular meshwork, similar to the form of pigmentary glaucoma, with consequent trabecular degeneration, atrophy of the iris and progressive impairment of the outflow of aqueous humor, which leads to an increase in IOP.
This mouse is characterised by a progressive increase in IOP, with progressive loss of the retinal response to structured visual stimuli (which may be lattices formed by pale strips alternating with dark strips, or chess pieces, with different contrasts and sizes) which depends on the inner nuclear layer/ganglion cells; in humans and in the animal model, this retinal response is called the pattern electroretinogram (P-ERG; Domenici et al.,1991; Ventura and Porciatti, 2006; Falsini et al., 2008). The dysfunction of the ganglion cells is followed at a late stage by degeneration of the ganglion cells, with a reduction in their density and progressive atrophy of the optic nerve (Ventura et al., 2006; Buckingham et al., 2008). […] At the age of 11 months the IOP rises further; a progression of the disorder similar to that which takes place in human patients can therefore be deduced. […]

[3] = tested on: DBA/2J mouse (photoreceptors and outer nuclear layer response to light); assay: Flash ERG after repeated topical application in murine spontaneous glaucoma model; format: in vivo; details: PACAP 50 μM in saline, two weeks, one treatment every 48 h
From the text: The other type of electroretinogram, flash ERG, which measures the response of the photoreceptors and the outer nuclear layer to light, appears wholly intact in glaucoma, further supporting the theory that this is a type of disorder affecting the inner nuclear layer, namely the ganglion cells, at least at the early stage.

Pituitary Adenylate Cyclase Activating Polypeptide [PACAP]
cAMP level in retinal homogenate, treated eye compared with control eye [1]: significantly higher | Effectiveness on P-ERG across the three concentrations tested ([2]; 500 nM (0.0022 μg/μl), 1 μM (0.0045 μg/μl), 50 μM (0.226 μg/μl), topical, every 48 hours for two weeks, 8-month-old mice): only the highest concentration (50 μM, 0.226 μg/μl) proved effective | Effect on alteration of P-ERG (treated eye vs control eye) ([2]; PACAP 50 μM (0.226 μg/μl) in saline, topical, one application every 48 hours for 2 weeks between 8 and 8.5 months of age, p<0.05): prevented the alteration of P-ERG | Minimal effective concentration able to exert protective effects on the ganglion cell function ([2]; repeated topical treatment, DBA/2J mouse, early stage glaucoma): 0.226 µg/µL | Flash ERG of the treated eye (response of photoreceptors and outer nuclear layer to light) [3]: normal flash ERG
